In patent publication US20120083423:

Target: autoantibodies to BRAF purified from the sera of RA patients

B1: BRAF (protein)
chain: LQKSPGPQRERKSSSSSEDRNRMKTLGRRDSSDDWEIPDGQITVGQRIGSGSFGTVYKGKWHGDVAVKMLNVTAPTPQQLQAFKNEVGVLRKTRHVNILLFMGYSTKPQLAIVTQWCEGSSLYHHLHIIETKFEMIKLIDIARQTAQGMDYLHAKSIIHRDLKSNNIFLHEDLTVKIGDFGLATVKSRWSGSHQFEQLSGSILWMAPEVIRMQDKNPYSFQSDVYAFGIVLYELMTGQLPYSNINNRDQIIFMVGRGYLSPDLSKVRSNCPKAMKRLMAECLKKKRDERPLFPQILASIELLARSLPKIHRSASEPSLNRAGFQTEDFSLYACASPKTPIQAGGYGAFPVH
  phosphorylation of MEK1 by BRAF: 80% of anti-BRAF autoantibodies activate phosphorylation of MEK1 by BRAF in vitro
